# Measurements as given in PMC7954794 (2021).
# B1: S. cerevisiae Abp1 (full length; SH3 domain 535-592 mutated) / Hua2 (parent complex)
# chain 1: MALEPIDYTTHSREIDAEYLKIVRGSDPDTTWLIISPNAKKEYEPESTGSSFHDFLQLFDETKVQYGLARVSPPGSDVEKIIIIGWCPDSAPLKTRASFAANFAAVANNLFKGYHVQVTARDEDDLDENELLMKISNAAGARYSIQTSSKQQGKASTPPVKKSFTPSKSPAPVSKKEPVKTPSPAPAAKISSRVNDNNDDDDWNEPELKERDFDQAPLKPNQSSYKPIGKIDLQKVIAEEKAKEDPRLVQKPTAAGSKIDPSSDIANLKNESKLKRDSEFNSFLGTTKPPSMTESSLKNDDDKVIKGFRNEKSPAQLWAERKAKQNSGNAETKAEAPKPEVPEDEPEGEPDVKDLKSKFEGLAASEKEEEEMENKFAPPPKKSEPTIISPKPFSKPQEPVKAEEAEQPKTDYKKIGNPLPGMHIEADNEEEPEENDDDWDDDEDEAAQPPLPSRNVASGAPVQKEEPEQEEIAPSLPSRNSIPAPKQEEAPEQAPEEEIEEEAEEAAPQLPSRSSAAPPPPPRRATPEKKPKENPWATAEYDYDAAEDNELTFVENDKIINIEFVDDDWWLGELEKDGSKGLFPSNYVSLGN
# chain 2: MQQTKFGKMYLDHDSVVEYSEDEIVEADRITLGYKKRLSMIENQMRHLLEDFSLDVQQIEPILADLQKYYDAFLQLLQKRNKSLQCKRSTHQPVPSPMNSQTSTNAKVNLSGKLMKFQLNSVQKFDEENILRILQNKIEFEHYFQIDKGKKQKVLLLAVYQCLNGPTRLHKVLNIEGIIHNNSIRTILGKQVSSSKWTVFLYDVKLVLLAHRQDVPNLETSKMIVRYGDLFPCALYFKDHTAY
# Variants of: B1
# Test: DHFR protein-fragment complementation in yeast (Abp1-DHFR F[1,2] x partner-DHFR F[3]), deep mutational scanning, second methotrexate selection vs reference; S. cerevisiae, DHFR-PCA selection in liquid with methotrexate at 30 C, two 72 h selections (the score uses the second); reference = the pre-selection culture
row,Variant,screen value
1,chain 1 D542T,"0.719 DMS score: mean over two replicates of log2(f_test/f_ref + 0.5)/ln 2, minus the synonymous-codon median (not a log2 …"
2,chain 1 I560K,"0.427 DMS score: mean over two replicates of log2(f_test/f_ref + 0.5)/ln 2, minus the synonymous-codon median (not a log2 …"
3,chain 1 E555V,"-0.0654 DMS score: mean over two replicates of log2(f_test/f_ref + 0.5)/ln 2, minus the synonymous-codon median (not a log2 …"
4,chain 1 E547Y,"-0.85 DMS score: mean over two replicates of log2(f_test/f_ref + 0.5)/ln 2, minus the synonymous-codon median (not a log2 …"
5,chain 1 D568V,"-2.62 DMS score: mean over two replicates of log2(f_test/f_ref + 0.5)/ln 2, minus the synonymous-codon median (not a log2 …"
6,chain 1 D577S,"0.3 DMS score: mean over two replicates of log2(f_test/f_ref + 0.5)/ln 2, minus the synonymous-codon median (not a log2 …"
7,chain 1 E540T,"-0.981 DMS score: mean over two replicates of log2(f_test/f_ref + 0.5)/ln 2, minus the synonymous-codon median (not a log2 …"
8,chain 1 D548P,"1.53 DMS score: mean over two replicates of log2(f_test/f_ref + 0.5)/ln 2, minus the synonymous-codon median (not a log2 …"
9,chain 1 D544R,"0.711 DMS score: mean over two replicates of log2(f_test/f_ref + 0.5)/ln 2, minus the synonymous-codon median (not a log2 …"
10,chain 1 A546F,"-0.502 DMS score: mean over two replicates of log2(f_test/f_ref + 0.5)/ln 2, minus the synonymous-codon median (not a log2 …"
11,chain 1 E555K,"0.347 DMS score: mean over two replicates of log2(f_test/f_ref + 0.5)/ln 2, minus the synonymous-codon median (not a log2 …"
12,chain 1 F553M,"0.868 DMS score: mean over two replicates of log2(f_test/f_ref + 0.5)/ln 2, minus the synonymous-codon median (not a log2 …"
13,chain 1 D548W,"-0.639 DMS score: mean over two replicates of log2(f_test/f_ref + 0.5)/ln 2, minus the synonymous-codon median (not a log2 …"
14,chain 1 E563S,"-0.411 DMS score: mean over two replicates of log2(f_test/f_ref + 0.5)/ln 2, minus the synonymous-codon median (not a log2 …"
15,chain 1 E575D,"-0.0843 DMS score: mean over two replicates of log2(f_test/f_ref + 0.5)/ln 2, minus the synonymous-codon median (not a log2 …"
16,chain 1 G591F,"0.26 DMS score: mean over two replicates of log2(f_test/f_ref + 0.5)/ln 2, minus the synonymous-codon median (not a log2 …"
17,chain 1 D548Q,"0.195 DMS score: mean over two replicates of log2(f_test/f_ref + 0.5)/ln 2, minus the synonymous-codon median (not a log2 …"
18,chain 1 A545G,"-0.421 DMS score: mean over two replicates of log2(f_test/f_ref + 0.5)/ln 2, minus the synonymous-codon median (not a log2 …"
19,chain 1 E563Q,"-0.159 DMS score: mean over two replicates of log2(f_test/f_ref + 0.5)/ln 2, minus the synonymous-codon median (not a log2 …"

row,Variant,screen value
1,chain 1 D548G,"-0.301 DMS score: mean over two replicates of log2(f_test/f_ref + 0.5)/ln 2, minus the synonymous-codon median (not a log2 …"
2,chain 1 I560T,"-0.415 DMS score: mean over two replicates of log2(f_test/f_ref + 0.5)/ln 2, minus the synonymous-codon median (not a log2 …"
3,chain 1 K576C,"-0.496 DMS score: mean over two replicates of log2(f_test/f_ref + 0.5)/ln 2, minus the synonymous-codon median (not a log2 …"
4,chain 1 D544S,"0.42 DMS score: mean over two replicates of log2(f_test/f_ref + 0.5)/ln 2, minus the synonymous-codon median (not a log2 …"
5,chain 1 E555L,"-0.165 DMS score: mean over two replicates of log2(f_test/f_ref + 0.5)/ln 2, minus the synonymous-codon median (not a log2 …"
6,chain 1 E555T,"0.557 DMS score: mean over two replicates of log2(f_test/f_ref + 0.5)/ln 2, minus the synonymous-codon median (not a log2 …"
7,chain 1 E563K,"-0.922 DMS score: mean over two replicates of log2(f_test/f_ref + 0.5)/ln 2, minus the synonymous-codon median (not a log2 …"
8,chain 1 I560F,"-0.852 DMS score: mean over two replicates of log2(f_test/f_ref + 0.5)/ln 2, minus the synonymous-codon median (not a log2 …"
9,chain 1 K558M,"-0.491 DMS score: mean over two replicates of log2(f_test/f_ref + 0.5)/ln 2, minus the synonymous-codon median (not a log2 …"
10,chain 1 D542R,"-0.244 DMS score: mean over two replicates of log2(f_test/f_ref + 0.5)/ln 2, minus the synonymous-codon median (not a log2 …"
11,chain 1 D577T,"-0.226 DMS score: mean over two replicates of log2(f_test/f_ref + 0.5)/ln 2, minus the synonymous-codon median (not a log2 …"
12,chain 1 I560E,"-0.924 DMS score: mean over two replicates of log2(f_test/f_ref + 0.5)/ln 2, minus the synonymous-codon median (not a log2 …"
13,chain 1 D548C,"0.141 DMS score: mean over two replicates of log2(f_test/f_ref + 0.5)/ln 2, minus the synonymous-codon median (not a log2 …"
14,chain 1 E540Y,"-2.86 DMS score: mean over two replicates of log2(f_test/f_ref + 0.5)/ln 2, minus the synonymous-codon median (not a log2 …"
15,chain 1 D548H,"0.00293 DMS score: mean over two replicates of log2(f_test/f_ref + 0.5)/ln 2, minus the synonymous-codon median (not a log2 …"
16,chain 1 D566Y,"-2.1 DMS score: mean over two replicates of log2(f_test/f_ref + 0.5)/ln 2, minus the synonymous-codon median (not a log2 …"
17,chain 1 A546R,"-1.4 DMS score: mean over two replicates of log2(f_test/f_ref + 0.5)/ln 2, minus the synonymous-codon median (not a log2 …"
18,chain 1 D568E,"-1.5 DMS score: mean over two replicates of log2(f_test/f_ref + 0.5)/ln 2, minus the synonymous-codon median (not a log2 …"
19,chain 1 D542H,"-0.15 DMS score: mean over two replicates of log2(f_test/f_ref + 0.5)/ln 2, minus the synonymous-codon median (not a log2 …"

# Second part, the variant after the results:
row,screen value,Variant
1,"0.472 DMS score: mean over two replicates of log2(f_test/f_ref + 0.5)/ln 2, minus the synonymous-codon median (not a log2 …",chain 1 N592L
2,"0.43 DMS score: mean over two replicates of log2(f_test/f_ref + 0.5)/ln 2, minus the synonymous-codon median (not a log2 …",chain 1 L590I
3,"-1.53 DMS score: mean over two replicates of log2(f_test/f_ref + 0.5)/ln 2, minus the synonymous-codon median (not a log2 …",chain 1 N586E
4,"0.0686 DMS score: mean over two replicates of log2(f_test/f_ref + 0.5)/ln 2, minus the synonymous-codon median (not a log2 …",chain 1 P535F
5,"-0.0677 DMS score: mean over two replicates of log2(f_test/f_ref + 0.5)/ln 2, minus the synonymous-codon median (not a log2 …",chain 1 P535G
6,"1.15 DMS score: mean over two replicates of log2(f_test/f_ref + 0.5)/ln 2, minus the synonymous-codon median (not a log2 …",chain 1 S589E
7,"-0.863 DMS score: mean over two replicates of log2(f_test/f_ref + 0.5)/ln 2, minus the synonymous-codon median (not a log2 …",chain 1 N586L
8,"-1.55 DMS score: mean over two replicates of log2(f_test/f_ref + 0.5)/ln 2, minus the synonymous-codon median (not a log2 …",chain 1 N586K
9,"-0.463 DMS score: mean over two replicates of log2(f_test/f_ref + 0.5)/ln 2, minus the synonymous-codon median (not a log2 …",chain 1 N592K
10,"-0.242 DMS score: mean over two replicates of log2(f_test/f_ref + 0.5)/ln 2, minus the synonymous-codon median (not a log2 …",chain 1 L590M
11,"-2.4 DMS score: mean over two replicates of log2(f_test/f_ref + 0.5)/ln 2, minus the synonymous-codon median (not a log2 …",chain 1 Y587T
12,"-0.956 DMS score: mean over two replicates of log2(f_test/f_ref + 0.5)/ln 2, minus the synonymous-codon median (not a log2 …",chain 1 N561H
13,"0.94 DMS score: mean over two replicates of log2(f_test/f_ref + 0.5)/ln 2, minus the synonymous-codon median (not a log2 …",chain 1 V554Q
14,"0.37 DMS score: mean over two replicates of log2(f_test/f_ref + 0.5)/ln 2, minus the synonymous-codon median (not a log2 …",chain 1 S589K
15,"0.593 DMS score: mean over two replicates of log2(f_test/f_ref + 0.5)/ln 2, minus the synonymous-codon median (not a log2 …",chain 1 S589V
16,"0.755 DMS score: mean over two replicates of log2(f_test/f_ref + 0.5)/ln 2, minus the synonymous-codon median (not a log2 …",chain 1 N592P
17,"1.46 DMS score: mean over two replicates of log2(f_test/f_ref + 0.5)/ln 2, minus the synonymous-codon median (not a log2 …",chain 1 P535C
18,"-0.374 DMS score: mean over two replicates of log2(f_test/f_ref + 0.5)/ln 2, minus the synonymous-codon median (not a log2 …",chain 1 T552N
19,"-0.883 DMS score: mean over two replicates of log2(f_test/f_ref + 0.5)/ln 2, minus the synonymous-codon median (not a log2 …",chain 1 W536H

row,screen value,Variant
1,"0.578 DMS score: mean over two replicates of log2(f_test/f_ref + 0.5)/ln 2, minus the synonymous-codon median (not a log2 …",chain 1 V565T
2,"-0.703 DMS score: mean over two replicates of log2(f_test/f_ref + 0.5)/ln 2, minus the synonymous-codon median (not a log2 …",chain 1 T538K
3,"1.68 DMS score: mean over two replicates of log2(f_test/f_ref + 0.5)/ln 2, minus the synonymous-codon median (not a log2 …",chain 1 N549M
4,"-0.688 DMS score: mean over two replicates of log2(f_test/f_ref + 0.5)/ln 2, minus the synonymous-codon median (not a log2 …",chain 1 T552D
5,"0.744 DMS score: mean over two replicates of log2(f_test/f_ref + 0.5)/ln 2, minus the synonymous-codon median (not a log2 …",chain 1 L571H
6,"-0.841 DMS score: mean over two replicates of log2(f_test/f_ref + 0.5)/ln 2, minus the synonymous-codon median (not a log2 …",chain 1 W536E
7,"0.524 DMS score: mean over two replicates of log2(f_test/f_ref + 0.5)/ln 2, minus the synonymous-codon median (not a log2 …",chain 1 T538V
8,"-0.496 DMS score: mean over two replicates of log2(f_test/f_ref + 0.5)/ln 2, minus the synonymous-codon median (not a log2 …",chain 1 L574C
9,"-0.268 DMS score: mean over two replicates of log2(f_test/f_ref + 0.5)/ln 2, minus the synonymous-codon median (not a log2 …",chain 1 T538C
10,"-2.96 DMS score: mean over two replicates of log2(f_test/f_ref + 0.5)/ln 2, minus the synonymous-codon median (not a log2 …",chain 1 Y587K
11,"0.729 DMS score: mean over two replicates of log2(f_test/f_ref + 0.5)/ln 2, minus the synonymous-codon median (not a log2 …",chain 1 P535N
12,"1.38 DMS score: mean over two replicates of log2(f_test/f_ref + 0.5)/ln 2, minus the synonymous-codon median (not a log2 …",chain 1 N549T
13,"-0.425 DMS score: mean over two replicates of log2(f_test/f_ref + 0.5)/ln 2, minus the synonymous-codon median (not a log2 …",chain 1 L571S
14,"-0.235 DMS score: mean over two replicates of log2(f_test/f_ref + 0.5)/ln 2, minus the synonymous-codon median (not a log2 …",chain 1 S579E
15,"-0.0705 DMS score: mean over two replicates of log2(f_test/f_ref + 0.5)/ln 2, minus the synonymous-codon median (not a log2 …",chain 1 N556E
16,"0.252 DMS score: mean over two replicates of log2(f_test/f_ref + 0.5)/ln 2, minus the synonymous-codon median (not a log2 …",chain 1 N592V
17,"0.311 DMS score: mean over two replicates of log2(f_test/f_ref + 0.5)/ln 2, minus the synonymous-codon median (not a log2 …",chain 1 N592I
18,"0.616 DMS score: mean over two replicates of log2(f_test/f_ref + 0.5)/ln 2, minus the synonymous-codon median (not a log2 …",chain 1 T552S
